Laboratory results: patent US11739161B2, “Methods for treating and diagnosing prostate cancer” (Tufts Medical Center, Inc., priority 2017, dated 2023)

Experiments:
[1] = system: DU145 cells; experiment: RNASE4-induced cell proliferation (MTT assay); assay type: cell-based, human; conditions: exogenous RNASE4 1 μg/ml, DU145, 2% FBS
Experimental: FIGS. 10A-E. RNASE4 induces prostate cancer cell proliferation and phosphorylation of AKT and S6. (A and B) Exogenous RNASE4 (1 μg/ml) stimulates cell proliferation (A) and cell cycle progression (B) of DU145 cells cultured in the presence of 2% FBS. Cell numbers were determined by MTT assay. Cell cycle status was determined by flow cytometry after 24 hour incubation with RNASE4. (C) Time course of AKT and S6 phosphorylation of serum-starved DU145 cells by RNASE4 (1 μg/ml). Left panels, immunoblots; right panels, quantification of p-AKT and p-S6 normalized to total AKT and S6 by Image J analysis. […] Cells were pre-incubated with the inhibitors at the indicated concentrations for 1 hour prior to be stimulated by 1 μg/ml of RNASE4 for 5 minutes. Top panels, immunoblots; bottom panels, Image J quantification of p-AKT and p-S6 normalized to total AKT and S6. (E) Effect of AKT inhibitor MK-2206, PI3K inhibitors Wortmannin and LY294002, and mTOR inhibitor Rapamycin on RNASE4-induced cell proliferation. DU145 cells were serum-starved overnight, incubated with the inhibitors for 1 hour, and then treated with RNASE4 (1 μg/ml) for three days. Cell numbers were determined by MTT assay. Data shown are from a representative experiments in triplicates of 3 independent repeats. Error bars indicate SEM. **P≤0.01, by unpaired two-tailed Student's t test.
FIGS. 12A-F. RNASE4 induces AXL phosphorylation. (A) Human phospho-receptor tyrosine kinase (RTK) antibody array analysis. Serum-starved DU145 cells were treated with or without 1 μg/ml of RNASE4 for 5 minutes. […] Cell lysates were analyzed by antibodies against total AXL and phospho-AXL, with β-actin as the loading control. Left panels, immunoblots; right panel, Image J quantification of p-AXL normalized to total AXL. […] Left panels, immunoblots; right panel, quantification. […] Cell numbers were determined by MTT assay. […] Cell lysates were analyzed for AKT and P6 phosphorylation by immunoblotting. Top panels, immunoblots; bottom panels, quantification of phospho-AKT and phospho-S6 by Image J analyses normalized to total AKT and P6, respectively. […]

[2] = system: AKT and S6 phosphorylation in PC-3 cells; experiment: RNASE4-induced phosphorylation of AKT and S6 (immunoblot); assay type: cell-based, human; conditions: serum-starved PC-3, RNASE4 1 μg/ml, time course
Experimental: FIGS. 11A-F. RNASE4 induces PC-3 cell proliferation and phosphorylation of AKT and S6. (A) Exogenous RNASE4 (1 μg/ml) stimulates PC-3 cells proliferation in the presence of 2% FBS. Cell numbers were determined by MTT assay. (B) Time course of AKT and S6 phosphorylation of serum-starved PC-3 cells by RNASE4 (1 μg/ml). Left panels, immunoblots; right panels, quantification of p-AKT and p-S6 normalized to total AKT and S6 by Image J. (C) Effect of AKT inhibitor MK-2206, PI3K inhibitors LY294002 and Wortmannin, and mTOR inhibitor Rapamycin on RNASE4-induced PC-3 cell proliferation. Cells were pre-incubated with the inhibitors at the indicated concentrations for 1 hour prior to be stimulated by RNASE4 (1 μg/ml) for 3 days. Cell numbers were determined by MTT assay. (D) Human phospho-RTK antibody array analysis of starved PC-3 cells treated with or without 1 μg/ml RNASE4 for 5 minutes. (E) Time course of AXL phosphorylation stimulated by RNASE4 in PC-3 cells. Serum-starved PC-3 cells were treated with 1 μg/ml RNASE4 for different time. Cell lysates were analyzed for total AXL and phopho-AXL by immunoblotting. Left panels, immunoblots; right panel, quantification phospho-AXL normalized to total AXL by Image J analysis. (F) Effect of AXL inhibitor R428 on RNASE4-induced PC-3 cell proliferation. […] Cell numbers were determined by MTT assay. […]

B1: RNASE4: recombinant human RNASE4 protein from pET11 expression in E. coli, purified by reversed-phase HPLC; added exogenously (protein, UniProt P34096 29-147, looked up)
Ribonuclease 4: QDGMYQRFLRQHVHPEETGGSDRYCNLMMQRRKMTLYHCKRFNTFIHEDIWNIRSICSTTNIQCKNGKMNCHEGVVKVTDCRDTGSSRAPNCRYRAIASTRRVVIACEGNPQVPVHFDG
In the case of B1, the cell proliferation [1] is reported as “stimulates” and the “activation (phosphorylation) of AKT and S6” value [2] is reported as “rapidly and continuously activated”.
